We go through 30 sequences from the nanobody polyreactivity screen of Harvey et al. (2022).

This data set in a line: yeast display, Sf9 membrane polyspecificity reagent, FACS + sequencing; frameworks hold sequencing errors. A digest of the protocol:
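Genes from sorted yeast were amplified by colony PCR, read by MiSeq 2 × 250 sequencing and filtered on CDR length. These cells carried a synthetic nanobody library in Saccharomyces cerevisiae BJ5465 and were sorted by FACS into low and high (top ~1%) gates on anti-HA and streptavidin fluorescence. Polyreactivity is labelled according to the gate of origin.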
As to “QVQLVESGVGLVQAGGSLRLSCAASGITFGRNTMGWYRQAPGKERELVAAIDSGGNTYADSVKGRFTISRDNAKNTVYLQMNSLRSEDTAVYYCNARETHQSRYGYWGQGTQVTVSS”, the “polyreactivity (PSR sort gate)” value is on record as “low polyreactivity”. For the sequence “QVQLVESGVGLVQAGGSLRLSCAASGITFIPYAMGWYRQAPGKERELVASISDGGGTNYADSVKGLFTISRDNAKNTVYLQKNSLNPEDTAVYYCATYASTYSYYGGDYWGQGTPVTVSS”, the “polyreactivity (PSR sort gate)” value is recorded as “low polyreactivity”. For the sequence “QVQLVESGVGLVQAGGSLRLSCAASGITFSSYAMGWYRQAPGKERELVAAITRSGSTTYADSVKGRFTISRDNAKNTVYLQMNSLKPEDTAVYYCAVDYYYLTGGVDYWGQGTQVTVSS”, the “polyreactivity (PSR sort gate)” value is given as “low polyreactivity”. As for “QVQLVESGVGLVQAGGSLRLSCAASGITFTSYAMGWYRQAPVKERELVAAISSSGVRTYYADSVKGRFTISRDNSKNTVYLQMNSLKPEDTAVYYCATRRRVLYGYDYWGQGTQVTVSS”, the entry is “high polyreactivity”; as for “QVQLVESGVGLVQAGGSLRLSCAASGITFVDYGMGWYRQAPGKERELVSAISRSGGSTYYADSVKGRFTISRDNAKNTVYLQMNSLKPEDTAVYYCATVLSRVRNSDKYWGQVTQVTVSS”, “high polyreactivity”. As for “QVQLVESGVGLVQAGGSLRLSCAASGITFVGYAMGWSRQAPGKERELVASITRGGGSTYYADSVKGRFTISRDNAKNTVYLQMNSLKPEDTAVYYCAARSHSTYYYWGQGTQVTVSS”, the “polyreactivity (PSR sort gate)” value is “high polyreactivity”. As for “QVQLVESGVGLVQAGGSLRLSCAASGITISYYSKGWSRQEPGKEREFVAAISWSVGSTYYADSVKGRFTISRDNAKNTVYLQMNSLKPEDTAVYYCAAEDGYWPTYYYWGQGTQVTVSW”, the entry is “high polyreactivity”. On to “QVQLVESGVGLVQAGGSLRLSCAASGLIFASNSMGSYRQAPGKEREFVAAITSSGGSTYYADSVKGRFPISRDNAKNTVYLQMNSLKPEDTAVYYCAADLYGAWWYTYGRYYYWGQGTQVTVSS”, for which the “polyreactivity (PSR sort gate)” value is reported as “low polyreactivity”.

Turning to “QVQLVESGVGLVQAGGSLRLSCAASGLILRKYAKGWYSQAPGKEREFVAAITQTGSRTYYADSVKGRFTISRDNAKNTVYLQMNSLKPEDTAVYYCNAVNYRSSRDSGYWGQGTQVTVSS”, the “polyreactivity (PSR sort gate)” value is “high polyreactivity”. Take “QVQLVESGVGLVQAGGSLRLSCAASGLTFGWYAMGWYRQAPGKERELVASITRRSGSTYYADSVKGRFTISRDNAKNTVYLQMNSLKPEDTAVYYCAARSRGTTRFDFWGQGTQVTVSW”: the “polyreactivity (PSR sort gate)” value is “high polyreactivity”. The entry for “QVQLVESGVGLVQAGGSLRLSCAASGLTFLWYAMGWYRQAPGKERELVAAITSGGRTKYADSVKGRFTISRDNAKNTVYLQMNSLKPEDTAVYYCAAYTQWWGYDYWGQGTQVSVSS” is “high polyreactivity”. On to “QVQLVESGVGLVQAGGSLRLSCAASGLTFPWYTMGWNRQAPGKERELVAAINSRGGSTYYADSVKGRFTISRDNAKNTVYLQMNRLKPVDTAVYYCATRSFGRMDYWGQGTQVTVSS”, for which the “polyreactivity (PSR sort gate)” value is given as “high polyreactivity”. The entry for “QVQLVESGVGLVQAGGSLRLSCAASGRIFATNAMGWYRQAPGKERELVATITRSAGRTYYADSVKGRFTISRDNAKNTVYLQMNSLKPEDTAVYYCAASYWDTEPGYREYDYWGQGTQVTVSS” is “low polyreactivity”; for “QVQLVESGVGLVQAGGSLRLSCAASGRIFERYAMGWYRQAPGKERELVAAIRSGGSTKYADSVKGRFTISRGNAKNTVYLQMNSLKPEDTAVYYCAAVIHYGDGYWGQGTQVTVSS” it is “low polyreactivity”; for “QVQLVESGVGLVQAGGSLRLSCAASGRIFFNNAMGWYIQAPGKERELVAGITSGSSTNYADSVKGRFTISRDNAKNTVYLQMNSLKPEDTAVYYCNAGDFERDVVVFIQHGGYYWGQGTQVTVSS” it is “low polyreactivity”. The entry for “QVQLVESGVGLVQAGGSLRLSCAASGRIFGFYAMGWYRQAPGKESELVAAITVSGSSTRYADSVKGRFTISRDIAKNTFYLQMNSLKPEDTGVYYCAAFNRCSGGFDYWGQGTQVTVSS” is “high polyreactivity”; for “QVQLVESGVGLVQAGGSLRLSCAASGRIFIDYAMGWYRQAPGKERELVATISESGGSTYYADSVKGRFTISRDNAKNTVYLQMNSLKPEDTAVYYCAVDDRYGTVYFYTKFDYWGQGTQVTVSS” it is “low polyreactivity”. Take “QVQLVESGVGLVQAGGSLRLSCAASGRIFRPYAMGWYRQAPGKERELVAAITQSGGITSYADSVKGRFTISRDNAKNTVYLQMNSLKPEDTAVYYCATTSRYTRSHYDWYDYWGQGTQVTVSS”: the “polyreactivity (PSR sort gate)” value is “low polyreactivity”. “QVQLVESGVGLVQAGGSLRLSCAASGRIFRWYAMGWYRQAPGKERELVASITWNGGSTYYADSVKGRFTISRDNAKNTVYLQMNSLKPEDNAVYYCAVPFYRGPEMGYWGQGTQVTVSS”: the “polyreactivity (PSR sort gate)” value is “high polyreactivity”.

For the sequence “QVQLVESGVGLVQAGGSLRLSCAASGRIFYRNAMGWYRQAPGKERELVAAISYSGGRTYYADSVKGRFTISRDNAKNTVYLQMNSLKPEDTAVYYCAARYAWGYVDPGDYWGQGTQVTVSS”, the “polyreactivity (PSR sort gate)” value is on record as “high polyreactivity”. As for “QVQLVESGVGLVQAGGSLRLSCAASGRTFAYYAMGWNRQAPWKERELVARITSDGSTYYADSVKGRFTISRDNAKNTVYLQMNSLIPEDTAVYYCNARWRYKWKYDHWGQGTQVTVSS”, the entry is “low polyreactivity”; as for “QVQLVESGVGLVQAGGSLRLSCAASGRTFFGYAMGWYRQAPGKEREFVASISKRGGRTYYADSVKGRFTISRDNAKNSVYLQMNSLKPEDTAVYYCNAYESYPDPLTMEYWGQGTQVTVSS”, “high polyreactivity”; as for “QVQLVESGVGLVQAGGSLRLSCAASGRTFSYYAMGWSRQAPGKERELVAAITSSGGSTYYADSVKGRFTISRDNAKNTVYLQMNSLKPEDTAVYYCAAEIWYYLWTTFERKYDYWGQGTQVTVSS”, “low polyreactivity”. The entry for “QVQLVESGVGLVQAGGSLRLSCAASGRTFTPYAMGWYRQAPGKEREFVAAISIVGRTKYADSVKGRFTISRDNAKNTVYLQMNSLKPEDTAVYYCNAQDSRDRKFYWGYTRGHWGLGTQVTVSS” is “low polyreactivity”. As for “QVQLVESGVGLVQAGGSLRLSCAASGRTFVGNAMGWYRQAPGKERELVAAISVSGGSTYYADSVKGRFTISRDNAKNTVYVQMNSLKPEDTAGYYCAADGYYNRYGYRTSDESEYWGQGTQVTVTS”, the entry is “low polyreactivity”; as for “QVQLVESGVGLVQAGGSLRLSCAASGRTFVNNAMGWYRQAPGKERELVAAISQSGSRTYYADSVKRRFTISRDNAKNTVYLQMNSLKPEDTAVYYCAARGARYSTSDYWGQGTQVTVSS”, “high polyreactivity”; as for “QVQLVESGVGLVQAGGSLRLSCAASGRTFYVYAMGWYRQAPGKERELVAAISLGGGSTYYADSVKGRFTNSRDNGKNTVYLQMNSLKPEDTAVYYCAADITRYRLGRDYWGQATQVTVSS”, “low polyreactivity”.

Consider “QVQLVESGVGLVQAGGSLRLSCAASGRTSAQYGMGWYRQAPGKERELVATITTSGGRTYYADSVKGRFTISRDTAKNTVYLQMNSLKPEDTAVYYGAAEGWTTPTPTSDDNQWWYDYWGQGTQVTVSS”, for which the “polyreactivity (PSR sort gate)” value is “high polyreactivity”. As for “QVQLVESGVGLVQAGGSLRLSCAASGSIFASYTMGWYIQAPGKERELVAAINRSGGSTYYADSVKGRFTISRDNAKNTVYFQMNSLKPDDTAVYYCAAGYIRRYYGYDYWGQGTQVTVSS”, the entry is “high polyreactivity”; as for “QVQLVESGVGLVQAGGSLRLSCAASGSIFDINAMGWYRQAPGKERELVAVITDSGSTYYADSVKGRFTISRDNAKNTVYLQMNSLKPEDTAVYYCAAESSLLFFLMDYWGQGTQVTVSS”, “low polyreactivity”.
